Positions count from the first letter of the chain named. A value given as a limit tells only on which side of the number the result lay.

Usually Kd stands for the concentration at which binding is half-saturated. Read a low Kd as tighter binding.

B1: PA15P1D05 (antibody, human IgG1, V domains shown)
VH: QVHLVESGGGVVQPGRSLGLSCVASGFTFNYYAIHWVRQAPGKGLEWVAVVSFDGNIIYYADSVKGRFNISRDNSKNTVNLQMNSLRPDDTAVYYCVRDGEYCSGGNCYWGDFDHWGQGSLVTVSP
VL: EIVLTQSPATLSLSPGERATLSCRASQSISSEYLTWFQQKPGQAPRLLIYGAFNRATGIPDRFSGSGSGTDFTLTISSLEPEDFAVYYCQQYANWWTFGQGTKVEIK
B2: PA15P1D12 (antibody, human IgG1, V domains shown)
VH: B1 VH with V23A, P88A, H115Y, S120T
VL: B1 VL with A9G
B3: PA13P1H08 variant rCDR1-N (antibody, human IgG1, V domains shown)
VH: QVQLVNSGGGVVQPGRSLRLSCVASGFTFSSYGIHWVRQAPGKGLEWVAVISNDGEKSESADSVKGRFTPSRDNSKNTVYLQMNNLRVEDTAVYYCAKVLDYSRYSYYYGMDVWGQGTTVIVSS
VL: EIVLTQSPGTLSLSPGGRGTLSCRTSQTINNAHLAWYQHKPGQAPRLLIYGSSERATGVPDRFSGSGSGSDFTLTISSLEAEDFAVYYCQHYGRSPPYTFGPGTKLDIK
B4: PA13P1H08 variant rCDR2-N (antibody, human IgG1, V domains shown)
VH: B3 VH with S31T, Y32F, N53Y, E56S, K57N, S58K
VL: B3 VL
B5: PA13P1H08 variant rFWRs-N (antibody, human IgG1, V domains shown)
VH: QVQLVESGGGVVQPGRSLRLSCAASGFTFSTFGMHWVRQAPGKGLEWVAVISNDGEKSYYADSVKGRFTISRDNSKNTLYLQMNSLRAEDTAVYYCAKVLDYSRYSYYYGMDVWGQGTTVTVSS
VL: B3 VL
B6: PA12P3D08 (antibody, human IgG1, V domains shown)
VH: QVQLVESGGGVVQPGKSLRLSCAASAFTFRRFAMHWVRQAPGKGLEWVAVISDNGLREDYEDSVKGRFTISRDNSQNTLYLQMNGLRAEDTAVYYCAKVLDYNEYSLYFGMDVWGQGTTVTVSS
VL: EVVLTQSPATLSLSPGERATLSCRTSQAISNNFLAWYQQRPGQPPRLLIYASSRRATDTPDRFTGSGSGTDFTLTITRLEPEDFAVYFCQYYSDSPPYTFGPGTKLEIK
B7: PA12P1C07 (antibody, human IgG1, V domains shown)
VH: B6 VH with V5E, A23V, R30K, Q76K, N77D, G85S, A88P, V93I, N103S, T121L
VL: EIVLTQSPAILSLSPGDRATLSCRTSQTVNSNFLAWYQQKPGQAPRLLIYGASRRAIDIPDRFTGSGSGTEFTLTIARLEPEDFAVYSCQHYSDSPPYTFGQGTKLEIK

In one experiment the target is Ara h 2 (purified natural peanut allergen) (Arachis hypogaea) (UniProt Q6PSU2). The experiment can be described thus: BLI, antibody on anti-human IgG Fc sensors, Ara h 2 as analyte, top 6 nM. Background: BLI is a label-free optical method that tracks binding on a fibre tip over time.
Ara h 2 (purified natural peanut allergen) (Arachis hypogaea), sequence (Q6PSU2 22-172): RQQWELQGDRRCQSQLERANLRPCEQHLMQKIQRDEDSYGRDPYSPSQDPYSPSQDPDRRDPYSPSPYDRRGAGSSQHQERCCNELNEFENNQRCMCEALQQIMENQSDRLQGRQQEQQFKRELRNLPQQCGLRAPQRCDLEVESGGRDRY
In turn, B1 displayed a Kd of 0.54 nM.

In the case of B2, the Kd was 0.65 nM.

For B3, the dissociation constant (Kd) worked out at 0.016 nM.

B4 registered a Kd of 0.008 nM.

On to B5, for which the dissociation constant (Kd) worked out at 0.039 nM.

In the case of B6, the Kd was determined as 0.014 nM.

Consider B7, for which the Kd amounted to 0.017 nM.

For a further experiment the target is unchanged. The experiment can be described thus: not named there (biolayer interferometry in Example 1).
Molecule B4 registered a dissociation constant Kd below 1 nM.

The target is the same in a further experiment. The experiment can be described thus: biolayer interferometry.
In turn, B1 registered a Kd below 1 nM.

As for B2, the equilibrium dissociation constant (Kd) was below 1 nM.

(Values after patent publication US20210246195A1.)
